Measurements: article PMC9194504, “Chondroitin Sulfates Control Invasiveness of the Basal-Like Breast Cancer Cell Line MDA-MB-231 Through ROR1” (Frontiers in Oncology, 2022)

Molecular target: T1, Recombinant human ROR1-Fc chimera (human, UniProt Q01973 30-406)
T1 construct: receptor tyrosine kinase-like orphan receptor 1 (ROR1), human; recombinant ROR1-Fc chimera, R&D Systems Cat. No. 9490-RO; also called receptor tyrosine kinase-like orphan receptor 1; recombinant ROR1; source: bought: R&D Systems (Cat. No. 9490-RO)
T1 sequence (Q01973 30-406, change not shown): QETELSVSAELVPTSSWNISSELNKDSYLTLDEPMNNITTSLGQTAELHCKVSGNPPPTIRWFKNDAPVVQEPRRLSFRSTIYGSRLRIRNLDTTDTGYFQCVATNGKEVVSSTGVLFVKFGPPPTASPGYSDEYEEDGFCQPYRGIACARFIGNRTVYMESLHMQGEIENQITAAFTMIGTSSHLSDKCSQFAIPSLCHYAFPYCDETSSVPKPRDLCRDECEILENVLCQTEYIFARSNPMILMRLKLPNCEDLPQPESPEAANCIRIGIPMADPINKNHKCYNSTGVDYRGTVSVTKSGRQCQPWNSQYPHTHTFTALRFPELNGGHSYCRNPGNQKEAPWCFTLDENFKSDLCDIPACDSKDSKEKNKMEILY
Assay: SPR; Biacore X100; ROR1-Fc amine-coupled on a CM5 chip (~3,200 RU); protein analyte premixed with CS-E (CS-E:protein molar ratio 7:1), 30 μl/min, 120 s, dissociation 130 s, 25°C; 50 mM Tris-HCl pH 7.5
Details: both partners purified

binding result: binds
B1: recombinant human DKK1 (ligand, UniProt O94907 32-266, looked up)
chain: TLNSVLNSNAIKNLPPPLGGAAGHPGSAVSAAPGILYPGGNKYQTIDNYQPYPCAEDEECGTDEYCASPTRGGDAGVQICLACRKRRKRCMRHAMCCPGNYCKNGICVSSDQNHFRGEIEETITESFGNDHSTLDGYSRRTTLSSKMYHTKGQEGSVCLRSSDCASGLCCARHFWSKICKPVLKEGQVCTKHRRKGSHGLEIFQRCYCGEGLSCRIQKDHHQASNSSRLHTCQRH
notes: Dickkopf-1 (DKK1), human, recombinant, R&D Systems Cat. No. 5439-DK/CF; also called Dickkopf-1; source: bought: R&D Systems (Cat. No. 5439-DK/CF)
